# Data reported in paper PMC2811263 (Arteriosclerosis, thrombosis, and vascular biology, 2009).
# B1: avian lipoprotein lipase (LPL) (enzyme, UniProt P11602 26-490, looked up)
# chain: SDPEAEMNFEGIESKFSLRTPAEPDEDVCYLVPGQMDSLAQCNFNHTSKTFVVIHGWTVTGMYESWVPKLVDALYKREPDSNVIVVDWLVRAQQHYPVSAAYTKLVGKDVAMFIDWMEEKFNYPLNNVHLLGYSLGAHAAGIAGSLTKKKVNRITGLDPAGPTFEYADAPIRLSPDDADFVDVLHTYTRGSPDRSIGIQKPVGHIDIYPNGGGFQPGCNLGEALRLIAEKGFSDVDQLVKCSHERSIHLFIDSLLYEEKPSMAYRCNTKEAFEKGLCLSCRKNRCNNLGYKVNRVRTKRNTKMYLKTRAQMPYKVFHYQVKIHFFGKTNVTKVDQPFLISLYGTLDESENIPFTLPEVSSNKTFSFLIYTEVDIGDLLMLKLQWEKDTFFSWSDWWTPFAFTIQRVRVKSGETQKKVVFCSRDGSSRLGKGEEAAIFVKCLEQPVSRKRGGAKKASKENSAHESA
# What was measured:
# wild-type mouse GPIHBP1 = target: T1, wild-type mouse GPIHBP1 (mouse, UniProt Q9D1N2 23-198); assay: binding of added LPL to transfected cells, bound LPL quantified by ELISA
# T1 sequence (looked up): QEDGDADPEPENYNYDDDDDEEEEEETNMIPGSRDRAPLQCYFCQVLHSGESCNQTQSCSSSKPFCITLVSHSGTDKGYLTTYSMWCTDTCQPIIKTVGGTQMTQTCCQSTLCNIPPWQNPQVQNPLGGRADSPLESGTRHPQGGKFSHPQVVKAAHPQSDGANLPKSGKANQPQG
# [1] = target: T2, wild-type human GPIHBP1 (glycosylphosphatidylinositol-anchored high-density lipoprotein-binding protein 1) (human, UniProt Q8IV16 21-151); assay: as above
# T2 sequence (looked up): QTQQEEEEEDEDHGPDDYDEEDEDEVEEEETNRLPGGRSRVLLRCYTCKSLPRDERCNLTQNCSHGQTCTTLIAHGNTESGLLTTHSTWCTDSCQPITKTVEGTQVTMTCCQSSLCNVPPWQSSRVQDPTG
binder,measurement,setting,value
B1,fold more LPL bound than by cells expressing GPIHBP1-Q114P,wild-type mouse GPIHBP1,20.2 fold
same,fold more LPL bound than by cells expressing GPIHBP1-Q115P,[1],39.8 fold
